Article PMC6616073 (Frontiers in Pharmacology, 2003)
Positions of bridges follow the written chain, without caps; N, C: chain ends. No end group written: not given here.

Assays:
Test in all cases: radioligand binding
[1] = target: T1, human α7 nicotinic acetylcholine receptor stably expressed in the rat pituitary tumor-derived cell line GH4C1 (human, UniProt P36544 23-502); conditions: one partner purified
T1 construct: also called α7 nAChR; human α7 nAChR

[2] = target: T2, membrane-bound Torpedo californica nicotinic acetylcholine receptor (Torpedo californica); conditions: one partner purified
T2 construct: also called T. californica nAChR; Torpedo nAChR

[3] = target: T3, ligand-binding domain of the human nAChR α9 subunit (human, UniProt Q9UGM1 23-238); conditions: both partners purified
T3 construct: also called α9 LBD; human α9 LBD

[4] = target: T1, human α7 nicotinic acetylcholine …; conditions: one partner purified; remark: listed apart in the source

T1 sequence (P36544 23-502): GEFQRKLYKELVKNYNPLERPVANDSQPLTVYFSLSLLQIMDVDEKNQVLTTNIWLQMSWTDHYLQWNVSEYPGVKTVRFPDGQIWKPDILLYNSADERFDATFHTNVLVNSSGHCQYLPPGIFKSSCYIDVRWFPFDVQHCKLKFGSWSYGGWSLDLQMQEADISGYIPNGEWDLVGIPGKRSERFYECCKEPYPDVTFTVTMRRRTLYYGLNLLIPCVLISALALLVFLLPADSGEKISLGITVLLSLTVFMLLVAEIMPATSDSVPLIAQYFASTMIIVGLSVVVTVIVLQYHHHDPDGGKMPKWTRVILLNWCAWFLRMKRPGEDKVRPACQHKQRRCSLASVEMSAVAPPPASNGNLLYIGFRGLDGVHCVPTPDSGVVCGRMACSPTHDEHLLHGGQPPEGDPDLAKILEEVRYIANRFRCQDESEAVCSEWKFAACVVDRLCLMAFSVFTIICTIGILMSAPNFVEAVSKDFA
T3 sequence (Q9UGM1 23-238): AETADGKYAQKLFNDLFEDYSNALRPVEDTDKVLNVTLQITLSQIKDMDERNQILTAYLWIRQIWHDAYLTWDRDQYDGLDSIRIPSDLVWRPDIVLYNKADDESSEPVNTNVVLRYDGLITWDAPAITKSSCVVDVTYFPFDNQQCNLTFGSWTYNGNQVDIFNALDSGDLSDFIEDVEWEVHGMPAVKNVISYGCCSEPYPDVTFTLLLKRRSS
T2 sequence (P02710 25-461 limits assumed, chain 1 of 4): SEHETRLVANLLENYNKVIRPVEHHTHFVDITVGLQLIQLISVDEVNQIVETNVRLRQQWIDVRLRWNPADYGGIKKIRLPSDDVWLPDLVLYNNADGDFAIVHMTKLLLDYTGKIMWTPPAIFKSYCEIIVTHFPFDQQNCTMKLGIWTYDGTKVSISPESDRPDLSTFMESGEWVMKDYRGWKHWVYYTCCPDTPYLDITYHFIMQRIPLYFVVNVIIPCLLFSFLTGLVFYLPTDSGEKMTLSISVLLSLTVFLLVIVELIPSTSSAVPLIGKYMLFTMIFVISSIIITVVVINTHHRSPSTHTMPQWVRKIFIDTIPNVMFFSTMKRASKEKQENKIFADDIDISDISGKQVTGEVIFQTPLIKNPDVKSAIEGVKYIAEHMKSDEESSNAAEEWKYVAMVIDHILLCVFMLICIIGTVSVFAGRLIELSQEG
T2 sequence (P02712 25-493 limits assumed, chain 2 of 4, further chain): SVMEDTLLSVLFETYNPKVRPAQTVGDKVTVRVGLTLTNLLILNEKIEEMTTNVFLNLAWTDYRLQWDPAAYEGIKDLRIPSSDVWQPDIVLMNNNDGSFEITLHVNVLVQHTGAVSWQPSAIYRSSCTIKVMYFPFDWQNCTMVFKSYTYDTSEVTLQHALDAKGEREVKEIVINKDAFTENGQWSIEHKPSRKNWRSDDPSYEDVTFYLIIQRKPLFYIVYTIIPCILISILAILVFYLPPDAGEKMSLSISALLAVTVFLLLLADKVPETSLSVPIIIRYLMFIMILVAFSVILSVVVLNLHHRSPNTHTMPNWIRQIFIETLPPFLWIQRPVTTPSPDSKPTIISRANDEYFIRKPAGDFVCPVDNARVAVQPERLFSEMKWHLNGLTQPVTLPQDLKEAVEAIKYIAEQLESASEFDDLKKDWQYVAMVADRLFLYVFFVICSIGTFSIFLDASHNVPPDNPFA
T2 sequence (P02714 18-506 limits assumed, chain 3 of 4, further chain): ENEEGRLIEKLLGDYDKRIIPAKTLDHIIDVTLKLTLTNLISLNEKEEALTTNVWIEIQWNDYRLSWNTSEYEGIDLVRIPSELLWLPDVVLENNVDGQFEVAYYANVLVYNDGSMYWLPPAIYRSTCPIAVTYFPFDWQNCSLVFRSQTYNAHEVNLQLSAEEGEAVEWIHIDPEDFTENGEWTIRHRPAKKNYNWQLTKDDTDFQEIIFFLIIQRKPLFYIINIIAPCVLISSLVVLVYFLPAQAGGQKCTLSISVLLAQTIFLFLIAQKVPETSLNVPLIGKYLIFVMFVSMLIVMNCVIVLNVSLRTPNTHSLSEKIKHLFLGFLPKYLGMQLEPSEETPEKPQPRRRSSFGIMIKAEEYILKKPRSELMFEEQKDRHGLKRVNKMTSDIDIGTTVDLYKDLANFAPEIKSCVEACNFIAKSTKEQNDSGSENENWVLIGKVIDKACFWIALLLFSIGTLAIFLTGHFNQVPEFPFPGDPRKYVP
T2 sequence (P02718 22-522 limits assumed, chain 4 of 4, further chain): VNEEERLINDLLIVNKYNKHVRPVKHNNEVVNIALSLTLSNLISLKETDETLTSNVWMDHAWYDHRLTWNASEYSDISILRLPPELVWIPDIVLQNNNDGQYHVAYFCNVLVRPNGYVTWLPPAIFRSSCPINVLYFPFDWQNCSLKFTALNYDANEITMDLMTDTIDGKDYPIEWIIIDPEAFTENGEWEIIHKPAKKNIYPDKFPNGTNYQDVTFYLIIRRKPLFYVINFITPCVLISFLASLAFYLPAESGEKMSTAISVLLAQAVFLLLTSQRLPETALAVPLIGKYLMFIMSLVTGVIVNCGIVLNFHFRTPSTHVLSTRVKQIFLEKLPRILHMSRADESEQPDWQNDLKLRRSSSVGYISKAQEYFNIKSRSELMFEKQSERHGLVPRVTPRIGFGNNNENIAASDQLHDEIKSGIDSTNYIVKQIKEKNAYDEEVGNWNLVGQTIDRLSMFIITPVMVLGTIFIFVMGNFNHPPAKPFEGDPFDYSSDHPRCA

Row | Binder | IC50 [1] | IC50 [2] | IC50 [3] | IC50 [4]
1 | CKMVRHQRSPYEVVRRMC (disulfide 1-18) | 13.1 µM | 7.4 µM | 41.7 µM | –
2 | CTRTYYTPTRMC (also called Lynx1 linear short (4); peptide 4) [Lynx1 short linear (4), shorter loop II fragment of human Lynx1 with free terminal Cys] | 69.2 µM | – | – | –
3 | CTRTYYTPTRMC (not fully specified (bridges); cysteine pairing not given here, also called peptide 3; cyclic shorter form of Lynx1 fragment) [Lynx1 short (3), shorter loop II fragment of human Lynx1 with terminal Cys, disulfide-cyclised] | 58.9 µM | – | – | –
4 | CTTRTYYTPTRMKVSKC (not fully specified (bridges); cysteine pairing not given here, also called Lynx1 fragment (1); peptide 1) | 173 µM | – | 41.7 µM | 148 µM
5 | TTRTYYTPTRMKVSK (also called Lynx1 linear fragment (2); peptide 2) [Lynx1 linear (2), synthetic 15-membered loop II fragment of human Lynx1] | – | – | 40.7 µM | –
